Measured values taken from paper doi:10.1101/2021.02.22.432116 (bioRxiv, 2021).
Several values for one entry are separate records, joined by “and”; a condition that tells them apart may be missing. Equal values may be shown once. Read-outs that look alike come from different tables or passages of the source. Blank lines part the entries; values can stand above or below the binder they belong to.

B1: UBQLN2 UBA domain (UBQLN2 571-624) (domain or fragment, human, UniProt Q9UHD9 571-624, looked up)
chain: NAPQLPNPEVRFQQQLEQLNAMGFLNREANLQALIATGGDINAAIERLLGSQPS
B2: UBQLN2 248-576 (domain or fragment, human, UniProt Q9UHD9 248-576, looked up)
chain: MRNQDLALSNLESIPGGYNALRRMYTDIQEPMLNAAQEQFGGNPFASVGSSSSSGEGTQPSRTENRDPLPNPWAPPPATQSSATTSTTTSTGSGSGNSSSNATGNTVAAANYVASIFSTPGMQSLLQQITENPQLIQNMLSAPYMRSMMQSLSQNPDLAAQMMLNSPLFTANPQLQEQMRPQLPAFLQQMQNPDTLSAMSNPRAMQALMQIQQGLQTLATEAPGLIPSFTPGVGVGVLGTAIGPVGPVTPIGPIGPIVPFTPIGPIGPIGPTGPAAPPGSTGSGGPTGPTVSSAAPSETTSPTSESGPNQQFIQQMVQALAGANAPQLP
B3: UBQLN2 109-576 (domain or fragment, human, UniProt Q9UHD9 109-576, looked up)
chain: QGQSTQPSNAAGTNTTSASTPRSNSTPISTNSNPFGLGSLGGLAGLSSLGLSSTNFSELQSQMQQQLMASPEMMIQIMENPFVQSMLSNPDLMRQLIMANPQMQQLIQRNPEISHLLNNPDIMRQTLEIARNPAMMQEMMRNQDLALSNLESIPGGYNALRRMYTDIQEPMLNAAQEQFGGNPFASVGSSSSSGEGTQPSRTENRDPLPNPWAPPPATQSSATTSTTTSTGSGSGNSSSNATGNTVAAANYVASIFSTPGMQSLLQQITENPQLIQNMLSAPYMRSMMQSLSQNPDLAAQMMLNSPLFTANPQLQEQMRPQLPAFLQQMQNPDTLSAMSNPRAMQALMQIQQGLQTLATEAPGLIPSFTPGVGVGVLGTAIGPVGPVTPIGPIGPIVPFTPIGPIGPIGPTGPAAPPGSTGSGGPTGPTVSSAAPSETTSPTSESGPNQQFIQQMVQALAGANAPQLP
B4: UBQLN2 UBL domain (UBQLN2 1-107) (domain or fragment, human, UniProt Q9UHD9 1-107, looked up)
chain: MAENGESSGPPRPSRGPAAAQGSAAAPAEPKIIKVTVKTPKEKEEFAVPENSSVQQFKEAISKRFKSQTDQLVLIFAGKILKDQDTLIQHGIHDGLTVHLVIKSQNR

Legend:
Assay in all cases: NMR titration
[1] = biological target: B4
[2] = biological target: B4; remark: listed apart in the source
[3] = biological target: B1
UBQLN2 109-576 [4] = biological target: B3
UBQLN2 379-576 = UBQLN2 379-576 (human, UniProt Q9UHD9 379-576)
UBQLN2 248-576 = biological target: B2
UBQLN2 178-576 = UBQLN2 178-576 (human, UniProt Q9UHD9 178-576)
UBQLN2 109-576 [5] = biological target: B3; remark: listed apart in the source

Binder: B1
Kd [1]: 178 µM and 210 µM

Binder: B2
UBL peak intensity relative to isolated UBL [2]: 70%

Binder: B3
UBA peak intensity relative to isolated UBA [3]: 60%

Binder: B4
binding result (UBQLN2 109-576 [4]): binds
binding result (UBQLN2 379-576): binds
binding result (UBQLN2 248-576): binds
binding result (UBQLN2 178-576): binds

binding result (UBQLN2 109-576 [5]): binds
B5: UBQLN2 UBL I80A (domain or fragment, human, UniProt Q9UHD9 1-107, looked up)
chain: MAENGESSGPPRPSRGPAAAQGSAAAPAEPKIIKVTVKTPKEKEEFAVPENSSVQQFKEAISKRFKSQTDQLVLIFAGKALKDQDTLIQHGIHDGLTVHLVIKSQNR
